Measurements from publication PMC4405178 (Biochemistry, 2015).

Target: T1, full-length Ste2p L211R (Saccharomyces cerevisiae, UniProt D6VTK4 1-431, L211R)
T1 sequence (looked up): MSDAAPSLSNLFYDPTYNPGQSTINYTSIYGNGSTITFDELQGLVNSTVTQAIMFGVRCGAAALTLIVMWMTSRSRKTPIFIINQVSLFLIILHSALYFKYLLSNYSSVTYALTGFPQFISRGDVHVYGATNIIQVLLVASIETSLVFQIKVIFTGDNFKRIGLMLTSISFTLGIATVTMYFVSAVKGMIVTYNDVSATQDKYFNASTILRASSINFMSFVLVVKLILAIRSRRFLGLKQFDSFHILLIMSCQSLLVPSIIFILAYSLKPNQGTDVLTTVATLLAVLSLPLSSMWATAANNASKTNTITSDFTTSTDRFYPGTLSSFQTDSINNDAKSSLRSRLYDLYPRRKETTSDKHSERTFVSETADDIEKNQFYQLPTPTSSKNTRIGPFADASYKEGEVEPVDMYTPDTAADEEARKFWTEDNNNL
Assay: flow cytometry on cells

B1: [K^7(NBD),Nle^12] α-factor (peptide)
chain: WHWLQLKPGQPMY
modifications: NBD (7-nitrobenz-2-oxa-1,3-diazol-4-yl) conjugated to the lysine at position 7; norleucine at position 12 in place of methionine
B1 was tested. Which Kd did it give?
The Kd was 800 ± 100 pM.
